Experimental findings from paper PMC5295013 are described below.

This data set concerns Gp90 D234A (DNA polymerase, exonuclease-deficient) (Pseudomonas aeruginosa phage PaP1). Nature of the data set: SPR. As to conditions: SPR (Biacore 3000, SA chip, steady-state fit): 40 mM Tris-HCl pH 7.5, 10 mM DTT, 50 mM potassium glutamate, room temperature, 20-600 nM protein, ternary assays ….

As a reminder, the Kd is the concentration at which binding is half-saturated. Low readings indicate a tighter complex, high ones a looser complex.

In the case of “TTTGCTACAGAGTTATGGTGACGATACGTC / TGAATTCTAATGTAGTATAGTAATCCGCTCTATCGGACGTATCGTCACCATAACTCTGTAGC [30-mer(dd)/62-mer 8-oxoG primer-template]”, the Kd runs as follows: (30 mM Mg2+, 1 mM dATP (ternary complex, mispair), 8-oxoG at template position 35 from 5' end (28th from 3' end, first templating base), primer 3'-terminal ddC) 45 nM; (30 mM Mg2+, 1 mM dCTP (ternary complex), 8-oxoG at template position 35 from 5' end (28th from 3' end, first templating base), primer 3'-terminal ddC) 34 nM; (no Mg2+, no dNTP (binary complex), 8-oxoG at template position 35 from 5' end (28th from 3' end, first templating base), primer 3'-terminal ddC) 116 nM.
Consider “TTTGCTACAGAGTTATGGTGACGATACGTC / TGAATTCTAATGTAGTATAGTAATCCGCTCTATCGGACGTATCGTCACCATAACTCTGTAGC [30-mer(dd)/62-mer G primer-template]”, for which the Kd (30 mM Mg2+, 1 mM dCTP (ternary complex), primer 3'-terminal dideoxycytidine (ddC, chain terminator)) came out at 11 nM and the Kd (no Mg2+, no dNTP (binary complex), primer 3'-terminal dideoxycytidine (ddC, chain terminator)) was determined as 108 nM.
